Publication PMC2241857

B1: 45AGR (recessed) (dsDNA)
DNA 1: GCCTCGCAGCCGTCCAACCAAC
DNA 2: GGACGGCATTGGATCGAGGTTGAGTTGGTTGGACGGCTGCGAGGC
modifications: template 5' phosphate
B2: 45AG (1-nt gapped, 5'-phosphorylated downstream) (dsDNA)
DNA 1: GCCTCGCAGCCGTCCAACCAAC
DNA 2: CAACCTCGATCCAATGCCGTCC
DNA 3: B1 DNA 2
modifications: 5' phosphate on downstream oligo (S2) and template
B3: 45AG1bpDNP (1-nt gapped, non-phosphorylated downstream) (dsDNA)
DNA 1: GCCTCGCAGCCGTCCAACCAAC
DNA 2: CAACCTCGATCCAATGCCGTCC
DNA 3: B1 DNA 2
modifications: no 5' phosphate on downstream oligo (S2); template 5' phosphate
B4: LPSD incised 5'-dRP substrate (UDG and APE1 treated) (dsDNA)
DNA 1: CTGCAGCTGATGCGC
DNA 2: GTACGGATCCCCGGGTAC
DNA 3: GTACCCGGGGATCCGTACGGCGCATCAGCTGCAG
modifications: uracil (position 16 of S8) removed by UDG; APE1 nick leaves 3'-OH and 5'-dRP on S8[17-34]

Columns and labels:
DNA polymerase beta WT [1] = biological target: T1, DNA polymerase beta WT (UniProt P06746 1-335); assay: EMSA
DNA polymerase beta L22P = DNA polymerase beta L22P (UniProt P06746 1-335, L22P); assay: EMSA
DNA polymerase beta WT [2] = biological target: T1, DNA polymerase beta WT; assay: NaBH4 trapping of Schiff base complex

Row | Binder | Kd (DNA polymerase beta WT [1]) [nM] | Kd (DNA polymerase beta L22P) [nM] | binding result (DNA polymerase beta WT [2])
1 | B1 | 84 ± 18 | 455 ± 100 | –
2 | B2 | 12 ± 2 | 229 ± 50 | –
3 | B3 | 20 ± 3 | 291 ± 45 | –
4 | B4 | – | – | binds
